Drawing on publication PMC9975078, this text covers percent of RPA1 bound by HNRNPA2B1 for one substance.

The target of this assay is Heterogeneous nuclear ribonucleoprotein A2/B1 (HNRNPA2B1), endogenous (human (endogenous in U2OS)).
Sequence of Heterogeneous nuclear ribonucleoprotein A2/B1 (HNRNPA2B1), endogenous (human (endogenous in U2OS)) (P22626 whole entry): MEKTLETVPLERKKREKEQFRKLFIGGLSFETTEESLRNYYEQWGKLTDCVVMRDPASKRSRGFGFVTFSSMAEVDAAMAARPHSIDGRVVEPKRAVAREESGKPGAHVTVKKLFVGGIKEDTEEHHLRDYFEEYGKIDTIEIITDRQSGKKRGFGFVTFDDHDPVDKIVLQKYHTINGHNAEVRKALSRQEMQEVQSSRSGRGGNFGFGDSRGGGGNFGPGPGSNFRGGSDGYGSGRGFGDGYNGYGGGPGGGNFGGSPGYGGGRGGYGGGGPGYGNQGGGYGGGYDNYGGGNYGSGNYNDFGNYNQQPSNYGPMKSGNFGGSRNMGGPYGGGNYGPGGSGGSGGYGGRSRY

Substance “Replication Protein A subunit RPA70 (RPA1), endogenous (from UniProt P27694 1-616) (natural protein)” yielded a percent of RPA1 bound by HNRNPA2B1 of 43%.
